Experimental data from patent publication US20240218079A1, “PLASMA KALLIKREIN ANTIBODIES AND USES THEREOF” (Astria Therapeutics, Inc., priority 2021, published 2024).
Positions count from the first letter of the chain named. Numbers in names are those of the source.

What was measured:
[1] = target: T1, pkal (1 nM enzyme) (Homo sapiens, UniProt P03952); assay: Inhibition of pkal enzymatic activity in a fluorogenic peptide substrate assay (screening); type: biochemical
T1 construct: active human plasma kallikrein (pkal, Enzyme Research Labs, South Bend, IN); purchased Enzyme Research Labs, South Bend, IN
Method: (§1) Monoclonal IgGs were retested for pkal and prekal binding by ELISA, and were screened for inhibition of pkal (1 nM enzyme) enzymatic activity in a fluorogenic peptide substrate assay (Kenniston et al. J Biol Chem. 2014 Aug. 22; 289(34):23596-608). […] This hybridoma was sequenced to determine heavy and light chain variable domains (SEQ ID NO: 1 and SEQ ID NO: 2; MAb1). […] The nucleic acid sequence of the heavy chain variable domain of MAb1 is provided as SEQ ID NO: 33 and the nucleic acid sequence of the light chain variable domain of MAb1 is provided as SEQ ID NO: 34.

[2] = tested on: human pkal and prekal; assay: ELISA for binding to human pkal and prekal; details: monoclonal IgG from hybridoma
Method: Five prekallikrein (prekal) knock-out mice were immunized via the hock route with active human plasma kallikrein (pkal, Enzyme Research Labs, South Bend, IN). When serum titers indicated a robust immune response, draining lymph nodes were harvested, and lymphocytes were fused with a myeloma line using electrofusion. Resulting hybridomas were plated in thirty 384-well plates, and screening by ELISA for binding to human pkal and prekal. Hybridoma lines with preferential binding to pkal were subcloned and expanded.
as §1

[3] = target: T2, plasma kallikrein (pkal) (Homo sapiens, UniProt P03952); assay: HMWK cleavage functional assay (bradykinin release measured by ELISA); type: biochemical; details: inhibition of HMWK cleavage by pkal
T2 construct: active human plasma kallikrein (pkal, Enzyme Research Labs, South Bend, IN); purchased Enzyme Research Labs
Method: Specifically, the ability of each antibody to inhibit pkal cleavage of its natural substrate, High Molecular Weight Kininogen (HMWK) was observed. In these experiments 10 or 30 nM pkal was preincubated with inhibitory antibodies for 1 hr at RT, then 600 nM HMWK was added and incubated for 20 minutes and the reaction was quenched by adding 0.5 μM AEBSF. The concentration of bradykinin (BK) released from HMWK as catalyzed by pKal was measured using 1/100 dilution of the reaction product in a commercial ELISA kit (Enzo, Farmingdale, NY).
The HMWK assay parameters were physiologically relevant as the concentration of high molecular weight kininogen used is the concentration that circulates in humans and the concentration of plasma kallikrein used is in the range of what has been estimated in plasma from patients with hereditary angioedema (HAE) during an attack.
The IC90 values for the antibodies were also determined to provide an index of relative potency. In HAE, the therapeutically relevant level of inhibition to prevent HAE attacks is thought to be approximately 90% inhibition of plasma kallikrein. This corresponds to a measurement referred to as IC90, which is the concentration of an agent that results in 90% inhibitory effect.

[4] = target: T3, human plasma kallikrein (Homo sapiens, UniProt P03952); assay: SPR binding to human plasma kallikrein; details: pH 7.4, 37° C.
T3 construct: active human plasma kallikrein (pkal, Enzyme Research Labs, South Bend, IN); purchased Enzyme Research Labs
Method: Kinetic properties and selectivity of lead pkal antibodies were examined by SPR at 37° C. and either pH 7.4 or pH 6.0.

[5] = target: T4, human FcRn (Homo sapiens, UniProt P55899); assay: hFcRn binding by SPR (Biacore T200)
T4 construct: purchased Sino Biological CT009-H08H
Method: IgG1 was used as a control antibody. The antibody samples were assessed for FcRn binding via SPR using a Biacore T200. The Biacore chip was a CMS coupled with human FcRn (Sino Biological, Cat. No. CT009-H08H). Running buffer used was PBS 0.05% P20 and pH 6 or pH 7.4.

[6] = Cynomolgus pharmacokinetic studies; type: in vivo, cynomolgus monkey; details: male cynomolgus, IV infusion 5 mg/kg
Method: These studies of these antibodies were conducted concurrently, but were independent studies rather than a head-to-head comparison. Cynomolgus monkeys, LM-naïve or naive, 3.0-4.0 kg, male, N=18, were purchased from Hainan Jingang Biotech Co. LTD. The antibodies were prepared in 20 mM Histidine, 150 mM NaCl, 0.01% Tween 80, pH 6.5. In these studies, all antibodies were administered to male cynomolgus monkeys (N=3) via IV infusion over 10 min at 5 mg/kg. Blood was collected from cephalic and saphenous veins into pre-cooled citrate acid tubes at each time point. […] Blood samples were put on wet ice and centrifuged at 4° C. to obtain plasma within 15 minutes of sample collection. Plasma samples were stored at approximately −70 C. Presence of each anti-plasma kallikrein antibody in the plasma samples was determined via ELISA using a plate coated with anti-human antibody as the capture agent and human IgG-heavy and light chain monkey-adsorbed antibody as the detection reagent (Southern Biotech, Cat #: 2049-01 and Bethyl, Cat #A80-319P). ELISA plates were read using a SpectraMax M2.

[7] = tested on: trypsin, human pancrease; assay: Trypsin inhibition assay; type: biochemical; details: dilution series starting at 1 μM
Method: Fluorescence intensity was measured every 5 minutes. Gabexate mesylate was used as a positive control, in a dilution series starting at 1 μM. The assay was performed in duplicate.

T4 sequence (P55899 24-297 limits assumed): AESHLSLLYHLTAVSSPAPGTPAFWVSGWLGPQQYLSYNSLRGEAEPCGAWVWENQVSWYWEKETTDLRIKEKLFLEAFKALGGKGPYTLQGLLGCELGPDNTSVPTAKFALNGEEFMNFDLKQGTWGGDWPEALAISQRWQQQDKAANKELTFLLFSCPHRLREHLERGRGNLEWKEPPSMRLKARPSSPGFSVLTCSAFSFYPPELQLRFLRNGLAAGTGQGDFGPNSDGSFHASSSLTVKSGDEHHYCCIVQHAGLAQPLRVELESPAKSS
T4 sequence (P61769 21-119 partner): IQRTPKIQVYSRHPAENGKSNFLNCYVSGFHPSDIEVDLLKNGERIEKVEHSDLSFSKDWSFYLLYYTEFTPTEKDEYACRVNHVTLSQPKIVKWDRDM
T1 sequence (P03952 391-638 limits assumed): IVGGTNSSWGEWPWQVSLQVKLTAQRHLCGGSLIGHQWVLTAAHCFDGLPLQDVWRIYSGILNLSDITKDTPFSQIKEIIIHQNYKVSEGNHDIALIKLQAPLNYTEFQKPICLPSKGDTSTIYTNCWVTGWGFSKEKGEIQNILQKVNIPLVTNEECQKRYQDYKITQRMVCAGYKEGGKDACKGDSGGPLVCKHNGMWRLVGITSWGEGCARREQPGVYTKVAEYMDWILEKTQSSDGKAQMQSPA
T1 sequence (P03952 20-390 limits assumed): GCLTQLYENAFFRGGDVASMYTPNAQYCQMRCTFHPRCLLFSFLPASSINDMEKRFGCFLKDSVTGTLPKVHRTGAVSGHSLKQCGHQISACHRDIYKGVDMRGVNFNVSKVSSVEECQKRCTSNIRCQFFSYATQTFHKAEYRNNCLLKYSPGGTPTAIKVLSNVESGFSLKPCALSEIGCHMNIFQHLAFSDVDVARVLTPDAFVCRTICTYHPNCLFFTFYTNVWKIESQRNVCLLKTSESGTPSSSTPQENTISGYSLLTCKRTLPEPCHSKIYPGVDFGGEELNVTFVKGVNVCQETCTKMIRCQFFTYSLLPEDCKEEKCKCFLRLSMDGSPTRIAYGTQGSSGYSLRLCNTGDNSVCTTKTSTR
T3 sequence (P03952 20-390 limits assumed): as above
T3 sequence (P03952 391-638 limits assumed): as the sequence (P03952 391-638 limits assumed) above
T2 sequence (P03952 20-390 limits assumed): as the sequence (P03952 20-390 limits assumed) above
T2 sequence (P03952 391-638 limits assumed): as the sequence (P03952 391-638 limits assumed) above

B1: MAb2: optimally humanized variant VH5_VL4; VH SEQ ID NO: 3, VL SEQ ID NO: 4 (antibody, V domains shown)
VH: QVQLVQSGAEVKKPGSSVKVSCKASGYAFSSYWMNWVRQAPGQGLEWIGQIYPGDDDTNYNGKFQGRVTITVDKSTTTAYMELSSLRSEDTAVYFCAGSLMVTTGAPFDYWGQGTTVTVSS
VL: DIQMTQSPSSLSASVGDRVTITCKASQDVGIAVAWYQQKPGKAPKFLIYWASTRHTGVPDRFSGSGSGTDFTLTISSLQPEDFATYFCQQYRSYPLTFGQGTKLEIK
inhibition of pkal enzymatic activity (in words) [1]: maintained both binding affinity and inhibitory potency

B2: MAb3: humanized, liability fixed VH SEQ ID NO: 5 with CDR2-optimized VL SEQ ID NO: 6 (antibody, V domains shown)
VH: B1 VH with G62A
VL: B1 VL with W50Y, T53H, H55G, T56W
inhibition of pkal enzymatic activity (in words) [1]: maintained selectivity and activity

B3: MAb1: murine hybridoma lineage 24L13 anti-plasma kallikrein antibody; VH SEQ ID NO: 1, VL SEQ ID NO: 2 (antibody, V domains shown)
VH: QVQLQQSGAELVKPGASVKISCKASGYAFSSYWMNWVKQRPGEGLEWIGQIYPGDDDTNYNGKFKGKATLTVDKSSTTAYMQLSSLTSEDSAVYFCAGSLMVTTGAPFDYWGQGTTLTVSS
VL: DIVMTQSHKFMSTSVGDRVSITCKASQDVGIAVAWYQQKPGQSPKFLIYWASTRHTGVPDRFTGSGSGTDFTLTIRNVQSEDLSDYFCQQYRSYPLTFGSGTKLELK
selectivity for pkal over prekal by ELISA [2]: selective for pkal | inhibition of pkal enzymatic activity (in words) [1]: inhibitory

B4: MAb4-YTE: MAb4 with M252Y, S254T, T256E; heavy chain SEQ ID NO: 10, light chain SEQ ID NO: 8 (antibody)
heavy: QVQLVQSGAEVKKPGSSVKVSCKASGYAFSSYWMNWVRQAPGQGLEWIGQIYPGDDDTNYNAKFQGRVTITVDKSTTTAYMELSSLRSEDTAVYFCAGSLMVTTGAPFDYWGQGTTVTVSSASTKGPSVFPLAPSSKSTSGGTAALGCLVKDYFPEPVTVSWNSGALTSGVHTFPAVLQSSGLYSLSSVVTVPSSSLGTQTYICNVNHKPSNTKVDKRVEPKSCDKTHTCPPCPAPELLGGPSVFLFPPKPKDTLYITREPEVTCVVVDVSHEDPEVKFNWYVDGVEVHNAKTKPREEQYNSTYRVVSVLTVLHQDWLNGKEYKCKVSNKALPAPIEKTISKAKGQPREPQVYTLPPSREEMTKNQVSLTCLVKGFYPSDIAVEWESNGQPENNYKTTPPVLDSDGSFFLYSKLTVDKSRWQQGNVFSCSVMHEALHNHYTQKSLSLSPG
light: DIQMTQSPSSLSASVGDRVTITCKASQDVGIAVAWYQQKPGKAPKFLIYYASHRGWGVPDRFSGSGSGTDFTLTISSLQPEDFATYFCQQYRSYPLTFGQGTKLEIKRTVAAPSVFIFPPSDEQLKSGTASVVCLLNNFYPREAKVQWKVDNALQSGNSQESVTEQDSKDSTYSLSSTLTLSKADYEKHKVYACEVTHQGLSSPVTKSFNRGEC
Hill slope [3]: ~2 | Ka [4]: 69000 M⁻¹ s⁻¹ | Kd [4]: 7.3e-05 s⁻¹ | hFcRn Binding Ka ([5]; pH 6.0): 184000 M⁻¹ s⁻¹ | hFcRn Binding Kd ([5]; pH 6.0): 0.0277 s⁻¹ | hFcRn binding at pH 7.4 ([5]; pH 7.4, data not shown): no evidence of binding | CI (mL/day/kg) (Mean ± SD) [6]: 1.44 ± 0.33 mL/day/kg | T ½ (days) (Mean ± SD) [6]: 33.6 ± 8.3 days | Vss (mL/kg) (Mean ± SD) [6]: 66.8 ± 6.1 mL/kg | terminal half-life [6]: approximately 34 days | inhibition of trypsin activity [7]: did not inhibit trypsin activity
